Laboratory results taken from the nanobody polyreactivity screen of Harvey et al. (2022).

Assay: yeast display, Sf9 membrane polyspecificity reagent, FACS + sequencing; frameworks hold sequencing errors
How it was run: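 Polyreactivity labels are assigned by the sorting gate from which each nanobody was recovered. The gates were low and high (top ~1%), set on anti-HA fluorescence for expression and streptavidin fluorescence for reagent binding. Before sorting, galactose-induced (36–48 hours) yeast display cells were stained for 1 hour at 4 °C with 10% biotinylated, detergent-solubilized Sf9 membrane reagent.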

Row | Sequence | polyreactivity (PSR sort gate)
1 | QVQIVESGRGLVQAGGSLRLSCAASGLTFARNAMGWSRPAPGKQRELVAAITSGASTTYADSVKGRITISRDNAMNTVSVQMNSLKPEDTAVYYCAAPGYWVRTYGGWSRLDYWGQGTQVTVSS | high polyreactivity
2 | QVQLVESGGGLVQAGGSLRLSCAASGRIFWNYAMGWYREAPGKERELVASINWSGGSTYSADSVKGRFTISRDNAKNTVYLQMNSLKPEDTAVYYCNQDGRVYLDHDYWGQGTQVTVSS | low polyreactivity
3 | QVQLVESGGGLVQAGGSLRLSCAASGIIFFDYAMGWYRQAPGKDRELVAAISSGGGNTYYADSVKGRFTISRDNAKNTVYLQMNSLKPEDSAVYYCAAEPYIYGEQGAYDYWGQGTQVTVSS | low polyreactivity
4 | QVQLVESGGGLVQAGGSLRLSCAASGINFSFYTMRWYRQAPGIERELVAAISSGGDTYYADSVNGRFTNSRDNAKNTVYLQMNSLKPEVTAVYYCAVDQYDRTTAFCYWYPYYYWGQGTQVTVSS | low polyreactivity
5 | QVQLVESGGGLVQAGGSLRLSCAASGRTFWKYVMGWYRQAPGKEREVVAVISRPAGSTYYADSVKGRFTISRDNAKNTVYLQMNSLKPEETAVYYCNKPGGQSLGGYNYWVQGTQVTVSS | low polyreactivity
6 | QVQLVESGGGLVQAGGSLRLSCAASGLTFVYYTMGWYRQAPGKERELVAGINSGGSTYYADSVKGRFTISRDNAKNTVFLQMNSLKPEDTAVYYCAAVQRGYRRFRRIYDYWGQGTQVTVSS | high polyreactivity
7 | QVQLQESGGGQVQAVGSLRLSCAPSGSNFVSDTMCWYRHAPGKDRELVASIGRGSTTNHADSVKGRFTISRDNAKNIVYLLMNSLKPEDTAVYYCAALESYGKYHGYWGQGTQVTVSS | low polyreactivity
8 | QVQLVESGGGLVQAGGSLRLSCAASGSTFWPYAMGWYRQAPGKERELVAAISSSGGSTYYADSVKGRFTISRDNAKNTVYLQMNSLKPEDTAVYYCNKDYHRPYGGGSKGDYWGQGTLVTVSS | low polyreactivity
9 | QVQLVESGGGLVQAGGSLRLSCAASGRIFKYYTMGWSRQAPGKERELVAAISRDDSTNYADSVKGRFTISRDNAKNTVYLQMNSLKPEDTAVYYCAKGYHQYAGFYYWGQGTQVTVSS | high polyreactivity
10 | QVQLVESGGGLVQAGGSLRLICAASGRIFYAYAMGWYRQAPGKERELVATITYGGGSTYYADSVKGRFTISRDNAKNTVYLQMNSLKPEDTAVYYCAAVRTGSTLYTIRYYYWGQGTQVTVSS | low polyreactivity
11 | QVQLVESGGGLVQAGGSLRLSCAASGSTFYRYAMAWYRPAPGKERELVAAITRGGGRTYYADSVKGRFTISRDNAKNTVYLQMNSLKPEDTAVYYCNSASPYYDSWGQGTQVTVSS | high polyreactivity
12 | QVQLVESGGGLVQAGGSLRLSCAASGLIFRIYAMGWYRQAPGKERELVAAISSTGSRTYYADSVKGRFTISRDNAKNTVYLQMNSLKPEDTAVYYCAAKAYINNYDYWGQGTQVTVSS | high polyreactivity
13 | QVQHVESGGGLVQAGGSLRLSCAASGRTSYTNAMGWSRPAPGKERELVAAINYSGGSTYYADSVKGRYTISRDNAKNTVYLQMNSLKPEDTAVYYCAAERYYWYTEMGYWGQGTQVTVSS | high polyreactivity
14 | QVQLVESGGGLVQAGRSLRLSCAASGSIFPGNAMGWYRQAPGKERELVASINWSGGSTYYADSVKGRFTISRDNAKNTVYLQMNSLKPEDTAVYYCNADPGYYDYDYWGQVTQVTVSS | low polyreactivity
15 | QVQLVESGGGLVQAGGSLRLSCAASGYIYPPYAMRWYRQAPGKERELVATITRIGGSTYYADSVKGRLTMSRDNAKNTVDLQMNSLKPEDTAVYYCAARRDCGPYLSPENPAPMDYWGQGTQVTVSS | low polyreactivity
16 | QVQLVESGGGLVQAGGSLRLSCAASGFTCKKYAMGWSRQAPGKERDLVASITWYGGSTSYADSVKGRFTISRDNANNTVYLQMNSLKPEDTAVYYCAAATFVYRLRYNRFDYWGQGTQVTVSS | high polyreactivity
17 | QVQLVESGGGLVQAGGSLRLSCAASGRTFGLYAMGWYRQAPGKERELVAAISWGGGRTYYADSVKGRFTISRDNAKNTVYLQMNSLKPEDTAVYYCNAVYSPRYYVGGYDYWGQGTQVTVSS | high polyreactivity
18 | QVQLVESGGGLVQAGGSLRISCAASGFIFYGNAMGWYIQAPGKERELVASITGGGRTYYADSVKGRFTISRDNAKNTVYLQMNSLKPEDTAVYYCATLLAYRLGSGYDSWGQGTQVTVSS | high polyreactivity
19 | QVQLVESGGGLVQAGGSLRLSCAASGSIFYNTMGWYRQAPGKERELVAAITSGGSTYYADSVKGRFTISRDNAKNTVYLQMNSLKPEDTAVYYCAAESYYCGYQWLYFEYGYWGQGTQVTVSS | low polyreactivity
20 | QVQLVESGGGLVQAGGSLRLSCAASGNIFDYYAMGWYRQAPGKERELVAAISTGTSTYADSVKGRFTISRDNAKNTVYLQMNSVKPEDTAVYYCASDVGIRPLNYHPYNYWGQGTQVTVSS | low polyreactivity
21 | QVQLVESGGGLVQAGGSLRLSCAASGSIFPAYTMGWYRQAPGKERELVAAIPYSGARSTYYADSVKGRVTNSRDNAKNTVYLQMNSLKPEDTAVYYCNARDRARYFYDMDYWGQGTQVTVSS | low polyreactivity
22 | QVQLVESGGGLVQAGGSLRLSCAASGRTFRQYAMGWYRQAPGKERELVATISGGGGNTYYADSVKGRFTISRDNAKNTVYLQMNSLKPEDTAVYYCAARRRDRPVRGYDYWGQGTQVTVSS | high polyreactivity

Row | Sequence | polyreactivity (PSR sort gate)
23 | QVQLVESGGGLVQAGGSLRLSCAASGFTIRRYAMGWYRQAPGKERELVAAITTGGSTYYADSVKGRFTISRDNAKNTVYLQMNSLKPEDTAVYYCATDTYPYPLYYSPGAYGYWGQGTQVTVSS | high polyreactivity
24 | QVQLVESGGGLVQAGGSLRLSCAASGSIITWNAMGWYRQAPGKERELVAAIDWDGGSTYYADSVKGRFTISRDNAKNTVYLQMNSLKPEDTAVYYCAATYGWYTGRYPSGHYYYWGQGTQVTVSS | low polyreactivity
25 | QVQLVESGGGLVQAGGSLRLSCAASGSTFNEYTMGWYRQAPGKERELVAAIRATDGSTYYADSVKGRFTISRDNAKNTVYLQMNSLKPEDTAVYYCAADYYWNDYWGQGTQVTVSS | low polyreactivity
26 | QVQLVESGGGLVKAGGSLRLSCAASGRIFWAYAMGWYRQAPGKERELVAAINSGGRTYYADSVKGRFTISRDNAKNTVYLQMNSLKPEDTAVYYCAAAGVYSSDYWGQGTQVTVSS | low polyreactivity
27 | QVQLVESGGGLVQAGGSLRLSCAASGFIFGLYAMGWYRQAPGKERELVAAITWRGSTYYADSVKGRFTISRDNAKNTVYLQMNSLKPEDTAVYYCNDVRSAYILSNDYWGQGTQVTVSS | high polyreactivity
28 | QVQLVESGGGLVQAGGSLRLSCAAYGRTFDTYAMGWYLQAPGKERELVAAISFSGASTYYADSVKGRFTISRDNAKNTVYLQLNSLKPEDTAVYYCNARYGYRVPLTPIGARFNYWGQGTQETVSS | high polyreactivity
29 | QVQLVESSAGLVQAGGSLRLSCDASGSTFFYYAMGWYRQAPGKERELVAAISLSDGNTYYADSVKGRFTISRDNAKNTVYLQMNSLKPEDTAVYYCNRVGSQSMKYWGQGTQVTVSS | low polyreactivity
30 | QDQLVESGVGIVQAGGSLRLSCAASGSTFGIYAKGWYRQAPGKETELDAAISSGASTNYADSVKGRFTISRDNEKNTVYLQMNSLKQEDTAVYYCAVESVYEYGGYVDSAYDYWGQGTQVTVSS | low polyreactivity
31 | QVQLVESGGGLVQAGGSLRLSCAASGRIFRHNTMGWYRQAPGKERELVAGITASGGDTYYADSVKGRFTISRDNAKNTVYLDMNSLKPEDTAVYYCATSQYGYRSWPGLYYWGQGTQVTVSS | low polyreactivity
32 | QVQLVESGGGLVQAGGSLRLSCAASGRIFPFNAMGWYRQAPGKEREFVAAIRLSGTRTYYADSVKGRFTISRDNAKNTVYLQMNSLKPEDTAVYYCAAKYSGHYYNYDYWGQGTQVSVSS | high polyreactivity
33 | QVQLVESGAGLVQAGGSLRLSCAASGRTLTYNAMGWYRQAPGKEREFVAAISVGGGSTYADSVKGRFTISRDNAKNTVYLQMNRLKPEDTAVYYCAAAYTKLYYYWGQGTQVTVSS | low polyreactivity
34 | QVQLVESGGGLVQAGGSLRLSCAASGRIFVANAMGWYRQAPGKERELVAAISSSGSTNYADSVKGRFTISRDNAKNTVYLQMNSLKPEDTAVYYCAKQHLSTGSWFDPFEMDYWGQGTQVTVSS | low polyreactivity
35 | QVQLVQSGGGLVQAGGSLSLICAASGRIFGYYAMGWYRQAPGKERELVDTITFGGGSTYYADSVKGRFTISRDNAKNTVYLQMNSLKPEDTAVYYCAADCGYLGIYGDEYSWGQGTQVTVSS | low polyreactivity
36 | QGQLVESGGGLVQAGGSLRLSCAASGSTLVKYAMGTNRQAPGKERELVAAISWSGGRTDYADSVKGRFTSSRDNAKNTVYLQMNSLKPEDTAVYYCAARSTRFYTPGYYYWGQGTQVTVSS | high polyreactivity
37 | QVQLVESGGGLVQAGGSLRLSCAASGIIYYENTMGWYRQAPGKERELVAPINSGGSTYYADCVKGRFTISRDNAKNTVYLQMNSLKPEDTAVYYCAADDYSGLYYSSTYRYEYWGQGTQVTVSS | low polyreactivity
38 | QVQLVESGGGLVQAGGSLRLSCAASGSTFGVNAMGWYRQAPGKERELVAAITWSGDTTYYADSVKGRFTISRDNAKNTVYLQMNSLKPEDSAVYYCATYYYYPSWYLLYGDYNYWGQGTQVTVSS | low polyreactivity
39 | QVQLVESGGGVVQAGGSLRLSCAASGFIFPLYTMGWSRQAPGKERELVAAITGSGGSTYYADSVKGRFTISRDNAKNTVYLQMNSLKPEDTAVYYCAKDYTYGMDWGQGTQVTVSS | low polyreactivity
40 | QVQLVESGGGLVQAGGSLRLSCAASGIIFYGYAMGWYRQAPGKERELVAAISRSGGSTYYADSVKGRFTISRDNAKNTVYLQMNSLKPEDTAVYYCAAVAYPGKGNRGNYDYWGQGTQVTVSS | high polyreactivity
41 | QVQLVESGGGLVQAGGSLRLSCAGSGSSFSNYAMRGYRQATGKERELVAVITTGASTYYADSLKGRFTISRDNAKNTVYLQLNSLKPEDSAVYACAKGKISRETPGIYWSYSYGYWGQGTQVTVSS | high polyreactivity
42 | QVQLVESGGGLVQAGGSLRLSCAASGFIFYQYAMGWYRQAPGKERELVAVISRTGSTSYADSVKGRFTISRDNAKNTVYLQMNSLKPEDTAVYYCAARYYFYDYWGQGSQVTVSS | high polyreactivity
43 | QVQLVESGGGLVQAGGSLRLSCAASGLIFYQYAMGWYRQAPGKERELVAAINWSGGSTYYADSVKGRFTISRDNAKNTVYLQMNSLKPEDTAVYYCAADTAFRFALTRYRPMDYWGQGTQVTVSS | high polyreactivity
